Common to all, as to assay: EMSA
For orientation: In EMSA bound probe runs differently from free probe, usually more slowly.

Series [1] has as its system RhsP2tox WT (Pseudomonas aeruginosa PA14).
The target of series [2] is RhsP2tox K1564E K1564E (Pseudomonas aeruginosa PA14) (UniProt A0A0H2Z8A2).
In series [3] the target is RhsP2tox K1567E K1567E (Pseudomonas aeruginosa PA14) (UniProt A0A0H2Z8A2).
The target in series [4] is RhsP2tox K1574E K1574E (Pseudomonas aeruginosa PA14) (UniProt A0A0H2Z8A2).
In series [5] the target is RhsP2tox K1579E K1579E (Pseudomonas aeruginosa PA14) (UniProt A0A0H2Z8A2).
The target of series [6] is RhsP2tox K1580E K1580E (Pseudomonas aeruginosa PA14) (UniProt A0A0H2Z8A2).
In series [7] the target is RhsP2tox R1563E R1563E (Pseudomonas aeruginosa PA14) (UniProt A0A0H2Z8A2).
Series [8] concerns the target RhsP2tox WT (Pseudomonas aeruginosa PA14) (UniProt A0A0H2Z8A2).

As usually defined, the Kd is the concentration at which binding is half-saturated. The low end stands for tighter binding, the high end for weaker binding.

Take CsrB sRNA: the Kd in series [1] stood at 0.67 µM.

For the substance “GGGACCGGCGCAGAGGAGACAAUGCCGGAUUUAAGACGCGGAUGCACUGCUGUGUGUACUGUAGAGUCUGGCGGAUGUCGACAGACUCUAUUUUUUU [McaS sRNA]”, the binding entry is “binds more weakly” in series [2]; “binds more weakly” in series [3]; “no binding” in series [4]; “binds more weakly” in series [5]; “binds more weakly” in series [6]; “binds more weakly” in series [7]. The same substance yielded a Kd in series [8] of 6.9 µM.

With McaS sRNA, in series [1], the Kd came to 6.9 µM.

Substance synthetic 50-nt RNA displayed a Kd in series [1] of 2.2 µM.
